Data: publication PMC8577781

Target: human recombinant CXCL10 (human) (UniProt P02778)
Chain of UniProt P02778 (P02778 22-98): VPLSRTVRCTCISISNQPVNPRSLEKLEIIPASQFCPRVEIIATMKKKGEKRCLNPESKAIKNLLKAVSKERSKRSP

Substance	CXCL10 cleavage rate: GP63 in conditioned medium incubated with 1000 pg/mL CXCL10 for 2 hours, remaining CXCL10 measured by ELISA, rate by linear regression [pg/mL/min]
L. (L.) major GP63 (glycoprotein-63), wild-type allele gp63^PYSDGS (from UniProt P08148 40-577) (enzyme)	6.07
L. (L.) major GP63 D463N mutant gp63^PYSNGS (from UniProt P08148 40-577) (enzyme)	1.16
L. (L.) major GP63 triple mutant gp63^GYSNGA (from UniProt P08148 40-577) (enzyme)	0.14
